{"source": "patent US20060252053A1", "about": "(Dana-Farber, published 2006)", "molecules": {"B1": {"name": "endogenous Bcl2L12 polypeptide of human cell lines (LNZ308, LN443, LN382, U87MG, 293T) (other)", "chain": "MGRPAGLFPPLCPFLGFRPEACWERHMQIERAPSVPPFLRWAGYRPGPVRRRGKVELIKFVRVQWRRPQVEWRRRRWGPGPGASMAGSEELGLREDTLRVLAAFLRRGEAAGSPVPTPPRSPAQEEPTDFLSRLRRCLPCSLGRGAAPSESPRPCSLPIRPCYGLEPGPATPDFYALVAQRLEQLVQEQLKSPPSPELQGPPSTEKEAILRRLVALLEEEAEVINQKLASDPALRSKLVRLSSDSFARLVELFCSRDDSSRPSRACPGPPPPSPEPLARLALAMELSRRVAGLGGTLAGLSVEHVHSFTPWIQAHGGWEGILAVSPVDLNLPLD", "notes": "Endogenous protein in lysates or fixed cells of human cell lines"}}, "key": {"[1]": {"target": "endogenous Apaf-1 polypeptide of 293T cells (human) (UniProt O14727)", "sequence (O14727 whole entry)": "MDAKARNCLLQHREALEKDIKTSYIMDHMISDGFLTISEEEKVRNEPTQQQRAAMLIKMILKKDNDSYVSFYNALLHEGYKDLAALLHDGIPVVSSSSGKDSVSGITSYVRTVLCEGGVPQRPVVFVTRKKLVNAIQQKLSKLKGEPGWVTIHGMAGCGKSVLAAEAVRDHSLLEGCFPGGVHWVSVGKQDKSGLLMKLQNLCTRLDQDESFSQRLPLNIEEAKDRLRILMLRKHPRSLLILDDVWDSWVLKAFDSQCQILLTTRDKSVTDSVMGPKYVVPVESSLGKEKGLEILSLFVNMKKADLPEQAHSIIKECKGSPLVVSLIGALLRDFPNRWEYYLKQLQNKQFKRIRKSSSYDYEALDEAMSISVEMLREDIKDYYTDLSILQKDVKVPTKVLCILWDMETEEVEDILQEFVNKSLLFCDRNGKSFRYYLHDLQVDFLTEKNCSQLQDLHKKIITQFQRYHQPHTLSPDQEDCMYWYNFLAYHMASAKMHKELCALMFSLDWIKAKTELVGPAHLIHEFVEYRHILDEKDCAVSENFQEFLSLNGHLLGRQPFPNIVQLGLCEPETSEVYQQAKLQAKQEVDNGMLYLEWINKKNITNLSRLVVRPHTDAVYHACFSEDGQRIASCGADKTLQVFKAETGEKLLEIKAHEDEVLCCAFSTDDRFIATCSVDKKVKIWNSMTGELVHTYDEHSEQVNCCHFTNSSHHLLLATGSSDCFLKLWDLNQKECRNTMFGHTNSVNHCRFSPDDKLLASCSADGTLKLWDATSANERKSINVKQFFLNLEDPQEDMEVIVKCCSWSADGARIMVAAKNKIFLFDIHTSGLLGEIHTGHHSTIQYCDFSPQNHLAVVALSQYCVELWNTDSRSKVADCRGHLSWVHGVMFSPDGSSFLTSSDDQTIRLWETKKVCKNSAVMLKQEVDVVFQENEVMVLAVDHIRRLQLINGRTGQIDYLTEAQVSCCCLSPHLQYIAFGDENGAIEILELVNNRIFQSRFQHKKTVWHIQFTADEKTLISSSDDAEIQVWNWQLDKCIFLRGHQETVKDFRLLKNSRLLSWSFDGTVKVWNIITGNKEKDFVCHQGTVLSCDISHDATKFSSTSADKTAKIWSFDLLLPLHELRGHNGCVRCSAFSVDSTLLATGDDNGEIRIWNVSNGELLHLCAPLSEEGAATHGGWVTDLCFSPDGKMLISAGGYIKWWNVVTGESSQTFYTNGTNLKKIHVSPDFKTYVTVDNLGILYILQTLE", "test": "cell-based or functional assay"}, "[2]": {"target": "T1, endogenous procaspase-3 (LNZ308, U87MG and 293T cells) (human, UniProt P42574 1-277)", "T1 sequence (looked up)": "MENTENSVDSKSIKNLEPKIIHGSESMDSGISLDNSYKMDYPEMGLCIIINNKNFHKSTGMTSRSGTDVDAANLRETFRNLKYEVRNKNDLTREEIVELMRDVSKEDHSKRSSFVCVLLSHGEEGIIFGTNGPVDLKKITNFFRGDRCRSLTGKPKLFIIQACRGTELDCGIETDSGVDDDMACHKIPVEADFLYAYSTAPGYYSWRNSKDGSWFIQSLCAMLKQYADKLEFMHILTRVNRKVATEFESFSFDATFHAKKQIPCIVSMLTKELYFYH", "test": "anti-L12-2 immunoprecipitation from LNZ308, U87MG and 293T lysates, western blot", "procedure": "(§1) To define further the molecular actions of Bcl2L12 polypeptides, the physical interactions with key post-mitochondrial apoptosis signaling molecules were assessed. Anti-L12-2 immunoprecipitates from lysates of LNZ308, U87MG, and 293T cells were subjected to western blot analysis for procaspases 7 and 3 and cytochrome c. Briefly, cells were lysed in IP buffer. Cleared supernatants were incubated with prebleed serum (8 μl) coupled to Protein A-sepharose 4B beads (Sigma) for 1 hour and subsequently with anti-L12-2 antiserum (8 μl) for 1 to 2 hours. […] The blots were washed with PBS/Tween and developed with goat anti-rabbit IgG (1:10,000) or with goat anti-mouse antibodies (1:10,000) (Pierce) in 5% milk PBS/Tween. After washing with PBS/Tween, the blots were developed with the Lumigen PS3 kit (Amersham) following the manufacturer's protocol. 1/40 of the lysate used for the immunoprecipitation was loaded to quantify the amount of co-immunoprecipitated caspase-7. […] Anti-L12-2 immunoprecipitates from control- and siRNA#5-treated U87MG cells were also subjected to western blot analysis for caspase-7."}, "[3]": {"target": "T2, cytochrome c (endogenous, LNZ308, U87MG and 293T cells) (human, UniProt P99999 2-105)", "T2 construct": "also called apoptosome component cytochrome c", "T2 sequence (P99999 2-105 limits assumed)": "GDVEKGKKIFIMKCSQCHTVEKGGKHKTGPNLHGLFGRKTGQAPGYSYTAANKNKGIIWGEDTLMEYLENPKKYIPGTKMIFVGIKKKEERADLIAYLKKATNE", "test": "anti-L12-2 immunoprecipitation from LNZ308, U87MG and 293T lysates, western blot", "procedure": "as §1"}}, "data": [{"molecule": "Bcl2L12-ΔBH2ΔP-rΔIHD polypeptide, V5 tagged (human amino acid sequence 1-167)", "values": [{"measurement": "caspase-9 activity in 293T cells (vector only: about 420 RFUs)", "setting": "[1]", "value": 160, "unit": "RFUs"}]}, {"molecule": "B1", "values": [{"measurement": "binding result", "setting": "[2]", "value": "no binding"}, {"measurement": "binding result", "setting": "[3]", "value": "no binding"}]}]}
